Target: VEGF (vascular endothelial growth factor) (UniProt P15692-4 P15692-4:27-191)
Experiment: competition; competition ELISA apparent ED50; reduction attributed to geometry of liposome display
Details: chain copies: 2

Chain of VEGF (vascular endothelial growth factor) (P15692 other isoform, or with tags, fused parts or gaps): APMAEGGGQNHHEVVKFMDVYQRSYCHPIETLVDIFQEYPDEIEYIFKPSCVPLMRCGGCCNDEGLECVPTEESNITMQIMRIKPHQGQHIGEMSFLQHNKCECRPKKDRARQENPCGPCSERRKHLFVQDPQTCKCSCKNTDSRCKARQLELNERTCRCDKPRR

B1: NX278-Liposome (mixed)
mixed: TTTTACCCUGAUGGUAGACGCCGGGGUGTTTTT
modifications: 5'-dialkylglycerol (DAG), embedded in DSPC:cholesterol liposome; PS at 1-4 and 29-33; 2'-OMe at 5,13,16,17,20,23-26,28; 2'-NH2 at 6-9,12,15,19,21,22,27
- EC50: ~100 nM
